# US20240247055A1
# Biological target: low-density lipoprotein (LDL) receptor-related protein 1 (LRP1) (human) (UniProt Q07954)
# Assay: cell-based or functional assay
# Chain of UniProt Q07954 (Q07954 20-4544): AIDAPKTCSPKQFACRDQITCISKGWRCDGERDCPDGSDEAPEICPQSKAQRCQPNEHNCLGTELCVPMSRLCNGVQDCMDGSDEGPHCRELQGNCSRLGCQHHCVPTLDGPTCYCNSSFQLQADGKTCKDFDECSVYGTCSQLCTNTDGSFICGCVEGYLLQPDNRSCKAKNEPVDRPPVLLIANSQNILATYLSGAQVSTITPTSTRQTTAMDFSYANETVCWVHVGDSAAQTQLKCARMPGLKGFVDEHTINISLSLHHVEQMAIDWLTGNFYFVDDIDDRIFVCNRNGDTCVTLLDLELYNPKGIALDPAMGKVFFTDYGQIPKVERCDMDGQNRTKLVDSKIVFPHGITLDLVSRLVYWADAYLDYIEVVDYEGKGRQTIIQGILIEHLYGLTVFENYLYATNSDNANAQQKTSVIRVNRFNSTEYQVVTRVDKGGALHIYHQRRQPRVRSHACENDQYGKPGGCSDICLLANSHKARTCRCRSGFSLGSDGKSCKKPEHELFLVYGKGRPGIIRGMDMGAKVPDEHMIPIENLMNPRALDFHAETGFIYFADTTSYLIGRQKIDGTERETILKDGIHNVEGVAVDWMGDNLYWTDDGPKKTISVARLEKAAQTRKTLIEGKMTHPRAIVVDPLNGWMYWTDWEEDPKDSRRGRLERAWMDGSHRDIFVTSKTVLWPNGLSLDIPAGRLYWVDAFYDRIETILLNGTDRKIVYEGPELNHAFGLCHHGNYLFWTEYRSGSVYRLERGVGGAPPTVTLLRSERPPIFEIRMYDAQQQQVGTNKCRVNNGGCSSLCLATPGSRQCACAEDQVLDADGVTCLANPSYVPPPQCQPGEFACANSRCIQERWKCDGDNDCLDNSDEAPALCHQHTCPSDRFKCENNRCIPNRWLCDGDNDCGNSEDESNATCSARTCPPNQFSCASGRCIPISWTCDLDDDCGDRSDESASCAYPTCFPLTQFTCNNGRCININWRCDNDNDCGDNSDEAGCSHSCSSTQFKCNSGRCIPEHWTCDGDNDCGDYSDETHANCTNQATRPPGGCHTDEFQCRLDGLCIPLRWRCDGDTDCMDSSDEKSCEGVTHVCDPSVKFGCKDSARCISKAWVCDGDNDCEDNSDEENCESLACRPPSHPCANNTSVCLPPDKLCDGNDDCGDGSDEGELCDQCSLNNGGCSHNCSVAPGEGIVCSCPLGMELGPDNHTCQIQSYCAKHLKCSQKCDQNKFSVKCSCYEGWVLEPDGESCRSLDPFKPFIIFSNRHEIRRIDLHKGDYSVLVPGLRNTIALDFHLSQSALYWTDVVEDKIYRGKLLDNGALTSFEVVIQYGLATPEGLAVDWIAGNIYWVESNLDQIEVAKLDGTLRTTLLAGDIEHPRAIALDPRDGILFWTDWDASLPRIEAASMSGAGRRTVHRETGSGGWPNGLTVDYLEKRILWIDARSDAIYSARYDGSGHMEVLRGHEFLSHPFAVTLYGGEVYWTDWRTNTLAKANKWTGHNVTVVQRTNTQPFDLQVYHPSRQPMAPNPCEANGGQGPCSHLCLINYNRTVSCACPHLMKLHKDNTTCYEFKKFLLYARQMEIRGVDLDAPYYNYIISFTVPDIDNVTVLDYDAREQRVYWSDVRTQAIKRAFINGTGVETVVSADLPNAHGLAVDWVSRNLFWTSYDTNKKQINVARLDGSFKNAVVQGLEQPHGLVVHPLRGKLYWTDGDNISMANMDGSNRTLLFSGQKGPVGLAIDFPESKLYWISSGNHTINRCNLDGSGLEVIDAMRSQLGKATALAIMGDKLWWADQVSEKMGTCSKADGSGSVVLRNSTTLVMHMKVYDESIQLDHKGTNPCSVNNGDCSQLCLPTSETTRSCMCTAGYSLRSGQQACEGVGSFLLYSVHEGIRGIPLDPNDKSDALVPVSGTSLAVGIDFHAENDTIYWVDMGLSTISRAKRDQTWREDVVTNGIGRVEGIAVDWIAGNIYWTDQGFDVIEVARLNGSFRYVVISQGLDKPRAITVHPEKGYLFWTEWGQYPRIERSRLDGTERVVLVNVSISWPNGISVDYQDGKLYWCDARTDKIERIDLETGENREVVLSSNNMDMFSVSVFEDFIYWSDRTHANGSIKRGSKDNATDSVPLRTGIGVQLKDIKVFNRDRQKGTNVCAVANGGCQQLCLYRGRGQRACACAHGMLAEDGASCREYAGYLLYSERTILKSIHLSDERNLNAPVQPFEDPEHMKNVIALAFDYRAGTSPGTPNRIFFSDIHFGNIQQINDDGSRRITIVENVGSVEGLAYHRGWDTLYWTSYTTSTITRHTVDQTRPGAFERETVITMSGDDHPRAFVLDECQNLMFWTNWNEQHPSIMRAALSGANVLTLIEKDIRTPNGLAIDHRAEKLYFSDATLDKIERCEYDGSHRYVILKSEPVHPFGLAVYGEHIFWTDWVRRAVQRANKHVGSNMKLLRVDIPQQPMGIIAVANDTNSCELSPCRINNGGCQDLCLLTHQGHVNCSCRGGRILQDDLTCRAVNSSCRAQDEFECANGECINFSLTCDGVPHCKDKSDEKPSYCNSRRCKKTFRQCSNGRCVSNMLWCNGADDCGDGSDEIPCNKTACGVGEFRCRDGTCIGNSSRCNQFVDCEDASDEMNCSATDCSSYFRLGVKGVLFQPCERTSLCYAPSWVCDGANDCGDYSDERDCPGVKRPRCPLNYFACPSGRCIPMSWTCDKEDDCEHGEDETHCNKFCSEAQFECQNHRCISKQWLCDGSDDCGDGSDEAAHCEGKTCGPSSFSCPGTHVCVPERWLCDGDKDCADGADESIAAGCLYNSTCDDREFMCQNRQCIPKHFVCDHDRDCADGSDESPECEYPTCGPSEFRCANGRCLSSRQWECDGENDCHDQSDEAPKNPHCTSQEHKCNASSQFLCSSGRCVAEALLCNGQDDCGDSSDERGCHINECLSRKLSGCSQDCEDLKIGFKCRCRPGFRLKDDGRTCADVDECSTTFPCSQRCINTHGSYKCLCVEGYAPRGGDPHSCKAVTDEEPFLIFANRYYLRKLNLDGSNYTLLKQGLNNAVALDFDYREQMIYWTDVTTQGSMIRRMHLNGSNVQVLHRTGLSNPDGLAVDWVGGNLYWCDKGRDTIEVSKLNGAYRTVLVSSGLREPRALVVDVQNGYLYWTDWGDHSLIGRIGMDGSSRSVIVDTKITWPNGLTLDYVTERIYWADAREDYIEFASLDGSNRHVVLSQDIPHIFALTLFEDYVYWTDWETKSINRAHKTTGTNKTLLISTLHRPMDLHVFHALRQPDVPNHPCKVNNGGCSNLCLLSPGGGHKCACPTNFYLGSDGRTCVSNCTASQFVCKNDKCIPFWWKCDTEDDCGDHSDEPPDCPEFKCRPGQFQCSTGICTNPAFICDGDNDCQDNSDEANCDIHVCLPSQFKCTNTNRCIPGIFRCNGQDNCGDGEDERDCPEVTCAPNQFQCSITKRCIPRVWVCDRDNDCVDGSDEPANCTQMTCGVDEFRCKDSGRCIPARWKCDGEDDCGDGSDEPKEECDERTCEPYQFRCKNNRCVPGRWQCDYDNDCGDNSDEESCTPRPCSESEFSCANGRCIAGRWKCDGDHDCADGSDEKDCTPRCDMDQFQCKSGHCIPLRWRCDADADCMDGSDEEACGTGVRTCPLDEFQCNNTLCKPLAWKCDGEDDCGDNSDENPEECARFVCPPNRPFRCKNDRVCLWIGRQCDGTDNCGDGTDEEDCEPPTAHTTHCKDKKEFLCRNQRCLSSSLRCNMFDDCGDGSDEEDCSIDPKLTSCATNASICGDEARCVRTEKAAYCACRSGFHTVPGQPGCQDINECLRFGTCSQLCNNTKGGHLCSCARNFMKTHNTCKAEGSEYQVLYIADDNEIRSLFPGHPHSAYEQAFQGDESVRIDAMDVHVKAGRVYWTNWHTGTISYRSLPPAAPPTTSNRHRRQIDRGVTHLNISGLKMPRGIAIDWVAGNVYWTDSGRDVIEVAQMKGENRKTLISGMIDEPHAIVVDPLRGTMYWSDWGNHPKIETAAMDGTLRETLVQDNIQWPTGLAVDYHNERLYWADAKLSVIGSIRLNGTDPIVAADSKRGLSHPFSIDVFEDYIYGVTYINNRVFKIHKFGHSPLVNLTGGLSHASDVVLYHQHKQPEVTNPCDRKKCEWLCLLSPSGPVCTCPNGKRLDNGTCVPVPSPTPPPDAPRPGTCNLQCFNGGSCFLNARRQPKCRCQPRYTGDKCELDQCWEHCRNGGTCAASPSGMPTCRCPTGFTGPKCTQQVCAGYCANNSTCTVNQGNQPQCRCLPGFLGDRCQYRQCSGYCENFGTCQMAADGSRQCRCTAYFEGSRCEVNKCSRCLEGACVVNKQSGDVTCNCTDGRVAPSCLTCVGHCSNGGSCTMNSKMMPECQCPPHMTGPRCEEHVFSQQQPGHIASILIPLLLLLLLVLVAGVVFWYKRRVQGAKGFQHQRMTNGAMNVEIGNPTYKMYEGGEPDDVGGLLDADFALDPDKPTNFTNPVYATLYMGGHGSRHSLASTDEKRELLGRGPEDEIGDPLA
substance,measurement,value
receptor-associated protein (RAP) (from UniProt P30533 35-357) (ligand),inhibition of uptake of K18 tau in WT H4 cells (IC50),9.6 nM
same,inhibition of uptake of full-length tau in WT H4 cells (IC50),4.9 nM
